Data from publication PMC8464830 (Biomolecules, 2021).

Target: T1, human Calmodulin-1 (human, UniProt P0DP23 1-149)
T1 construct: also called hCaM-1; hCaM
Test: SPR
Conditions: both partners purified

B1: HIV-1 MA clade C (92BR025.8) construct with residue 1-109, lacking the C-terminal helix α5 (domain or fragment)
chain: MGARASILRGGKLDAWERIKLKPGGKKHYMMKHLVWASRELERFALDPGLLETSEGCKQIMKQLQPALQTGTKELISLHNTVATLYCVHEKIDVRDTKEALDKIKEEQN
binding result: binds
